{"source": "paper PMC5101480", "about": "(Scientific Reports, 2016)", "key": {"[1]": {"system": "TPR domain of SGTA (SGTA_TPR, residues 84–211)", "assay": "Solution NMR CSP titration of unlabelled SGTA_TPR into 15N-labelled Rpn13_260-407", "type": "binding, human", "conditions": "15N-labelled Rpn13_260-407, SGTA_TPR to 1:1; pH 6.0, 25 °C", "procedure": "In order to understand molecular details underlying the interaction between SGTA and Rpn13, solution NMR studies were carried out on excised domains of SGTA and Rpn13 guided by earlier mapping studies. Reciprocal chemical shift perturbation (CSP) experiments were performed by titrating unlabelled Rpn13 C-terminal domain (residues 260–407; hereafter described as Rpn13_260-407) into ^15N-labelled TPR domain of SGTA (residues 84–211; hereafter referred to as SGTA_TPR) and vice versa. Assignments of backbone amide resonances were obtained from the BMRB (accession numbers 5709 and 17286, for SGTA_TPR and Rpn13_260-407, respectively). […]\nProtein samples at concentrations between 300 μM and 1 mM were prepared in 10% D2O (Sigma Aldrich), 10 mM potassium phosphate pH 6.0, 100 mM NaCl and 250 μM TCEP buffer (with 10 μM DSS for proton chemical shift referencing). […] All NMR spectra were processed with TopSpin and analysed with CcpNMR Analysis[35]. Proteins used for NMR titrations were dialysed overnight against the same buffer (10 mM potassium phosphate pH 6.0, 100 mM NaCl and 250 μM TCEP) and mixed in different molar ratios, with the concentration of the labelled protein maintained constant. ^1H-^15N HSQC experiments were recorded for each titration point at 25 °C. Chemical shift perturbation (CSP) values were calculated for each amide signal using the following formula: […]"}, "[2]": {"target": "T1, TPR domain of SGTA (SGTA_TPR) (Homo sapiens, UniProt O43765)", "T1 construct": "thioredoxin A (TxA) fusion (N, cleaved yes); hexahistidine tag (N, cleaved yes); made in house; host or cells: E. coli BL21(DE3) Rosetta", "T1 sequence (O43765 84-211)": "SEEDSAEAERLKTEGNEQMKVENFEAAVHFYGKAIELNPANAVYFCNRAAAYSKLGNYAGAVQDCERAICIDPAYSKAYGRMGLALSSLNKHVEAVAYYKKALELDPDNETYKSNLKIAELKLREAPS", "assay": "Solution NMR CSP titration of unlabelled ligand into 15N-labelled SGTA_TPR", "type": "binding", "conditions": "pH 6.0, 25 °C", "procedure": "In order to understand molecular details underlying the interaction between SGTA and Rpn13, solution NMR studies were carried out on excised domains of SGTA and Rpn13 guided by earlier mapping studies. Reciprocal chemical shift perturbation (CSP) experiments were performed by titrating unlabelled Rpn13 C-terminal domain (residues 260–407; hereafter described as Rpn13_260-407) into ^15N-labelled TPR domain of SGTA (residues 84–211; hereafter referred to as SGTA_TPR) and vice versa. Assignments of backbone amide resonances were obtained from the BMRB (accession numbers 5709 and 17286, for SGTA_TPR and Rpn13_260-407, respectively). The ^1H-^15N HSQC spectra of both SGTA_TPR and Rpn13_260-407 show binding in a fast exchange regimen (Figs 1A and 2A). […] Binding was further confirmed by size-exclusion chromatography (SEC) and isothermal titration calorimetry (ITC) (Fig. 1C,D). […] ITC experiments yield a dissociation constant of 16.1 ± 1.4 μM in keeping with the value obtained from NMR.\nProtein samples at concentrations between 300 μM and 1 mM were prepared in 10% D2O (Sigma Aldrich), 10 mM potassium phosphate pH 6.0, 100 mM NaCl and 250 μM TCEP buffer (with 10 μM DSS for proton chemical shift referencing). All NMR experiments were acquired in 5 mm NMR tubes at 25 °C on 500 MHz and 700 MHz Bruker Avance spectrometers equipped with cryoprobes and operated by the TopSpin 3.1 software package. All NMR spectra were processed with TopSpin and analysed with CcpNMR Analysis[35]. Proteins used for NMR titrations were dialysed overnight against the same buffer (10 mM potassium phosphate pH 6.0, 100 mM NaCl and 250 μM TCEP) and mixed in different molar ratios, with the concentration of the labelled protein maintained constant. ^1H-^15N HSQC experiments were recorded for each titration point at 25 °C. Chemical shift perturbation (CSP) values were calculated for each amide signal using the following formula: […]\nwhere Δδ1H and Δδ15N are the chemical shift differences for the same amide in its free and bound state (δfree−δbound) and for proton and nitrogen chemical shift values respectively. […]"}, "[3]": {"target": "T1, TPR domain of SGTA (SGTA_TPR)", "assay": "Size exclusion chromatography (SEC) complex formation with SGTA_TPR", "type": "binding", "conditions": "mixed in 1:1 molar ratio", "procedure": "In order to understand molecular details underlying the interaction between SGTA and Rpn13, solution NMR studies were carried out on excised domains of SGTA and Rpn13 guided by earlier mapping studies. Reciprocal chemical shift perturbation (CSP) experiments were performed by titrating unlabelled Rpn13 C-terminal domain (residues 260–407; hereafter described as Rpn13_260-407) into ^15N-labelled TPR domain of SGTA (residues 84–211; hereafter referred to as SGTA_TPR) and vice versa. Assignments of backbone amide resonances were obtained from the BMRB (accession numbers 5709 and 17286, for SGTA_TPR and Rpn13_260-407, respectively). The ^1H-^15N HSQC spectra of both SGTA_TPR and Rpn13_260-407 show binding in a fast exchange regimen (Figs 1A and 2A). […] Binding was further confirmed by size-exclusion chromatography (SEC) and isothermal titration calorimetry (ITC) (Fig. 1C,D). […]\nSGTA_TPR and Rpn13 plasmids were transformed into E. coli BL21(DE3) Rosetta cells, with protein expression induced by adding 0.3–0.5 mM isopropyl-β-D-thiogalactopyranoside (IPTG) to bacterial cultures in LB media at OD600 ≈ 0.8, followed by overnight incubation at 18 °C. […] Proteins were concentrated using Vivaspin concentrators (Sartorius Stedin) and sample purity and homogeneity was assessed by SDS-PAGE, mass spectrometry and NMR. […]"}}, "note": "“Also recorded” adds a separate entry of the source."}
{"molecule": "Rpn13_260-407: Rpn13 C-terminal domain (residues 260–407), human, expressed in E. coli (protein, left off: thioredoxin A (TxA), N-terminal, cleaved | His6, N-terminal, cleaved, Rpn13 C-terminal domain (residues 260–407), human, expressed in E. coli) QPIQLSDLQSILATMNVPAGPAGGQQVDLASVLTPEIMAPILANADVQERLLPYLPSGESLPQTADEIQNTLTSPQFQQALGMFSAALASGQLGPLMCQFGLPAEAVEAANKGDVEAFAKAMQNNAKPEQKEGDTKDKKDEEEDMSLD", "values": [{"measurement": "CSP of Rpn13_260-407 backbone amides on binding SGTA_TPR", "setting": "[1]", "result": "only extreme C-terminal residues Met 404, Ser 405, Leu 406 and Asp 407 are perturbed"}, {"measurement": "effect on SGTA_TPR helix-7 residues 203–209 amide signals", "setting": "[2]; 3-fold molar excess of unlabelled ligand", "result": "perturbed"}, {"measurement": "CSP of SGTA_TPR backbone amide signals, result in words", "setting": "[2]; unlabelled ligand into 15N-labelled SGTA_TPR, Rpn13_260-407 up to 8 equivalents, Rpn13_260-402 up to 6-fold molar excess", "result": "Widespread perturbation of backbone amide signals; also recorded: cannot be fitted to a meaningful binding isotherm"}, {"measurement": "SEC complex formation with SGTA_TPR", "setting": "[3]", "result": "clearly indicative of a stable complex; also recorded: formation of a stable complex"}]}
